Experimental data published in US20240327815A1.

What was measured:
[1] = molecular target: Beta SARS-CoV-2 spike on pseudotyped lentivirus (SARS-CoV-2) (UniProt P0DTC2); experiment: cell-based or functional assay
[2] = molecular target: spike of live SARS-CoV-2 Delta variant (SARS-CoV-2) (UniProt P0DTC2); experiment: cell-based or functional assay
[3] = molecular target: Alpha SARS-CoV-2 spike on pseudotyped lentivirus (SARS-CoV-2) (UniProt P0DTC2); experiment: cell-based or functional assay
[4] = molecular target: spike of live SARS-CoV-2 Beta variant (SARS-CoV-2) (UniProt P0DTC2); experiment: cell-based or functional assay
[5] = molecular target: Delta SARS-CoV-2 spike on pseudotyped lentivirus (SARS-CoV-2) (UniProt P0DTC2); experiment: cell-based or functional assay
[6] = molecular target: P.1 (Gamma) SARS-CoV-2 spike protein, plate-coated (MSD) (SARS-CoV-2) (UniProt P0DTC2); experiment: MSD competition vs labelled ACE2
[7] = molecular target: Omicron SARS-CoV-2 spike protein, plate-coated (MSD) (SARS-CoV-2) (UniProt P0DTC2); experiment: MSD competition vs labelled ACE2
[8] = molecular target: Delta SARS-CoV-2 spike protein, plate-coated (MSD) (SARS-CoV-2) (UniProt P0DTC2); experiment: MSD competition vs labelled ACE2
[9] = molecular target: B.1.351 (Beta) SARS-CoV-2 spike protein, plate-coated (MSD) (SARS-CoV-2) (UniProt P0DTC2); experiment: MSD competition vs labelled ACE2
[10] = molecular target: B.1.1.7 (Alpha) SARS-CoV-2 spike protein, plate-coated (MSD) (SARS-CoV-2) (UniProt P0DTC2); experiment: MSD competition vs labelled ACE2

REGEN-COV
Pseudovirus Neutralization (IC50, nM) [1]: 4.9 nM
Live virus neutralization (MN50, nM) [2]: 0.05 nM
Live virus neutralization MN50 [2]: 0.05 nM
Pseudovirus Neutralization (IC50, nM) [3]: 0.06 nM
Live virus neutralization (MN50, nM) [4]: 0.08 nM
Pseudovirus Neutralization (IC50, nM) [5]: 0.05 nM
Pseudovirus neutralization IC50 [5]: 0.05 nM
IC50 [6]: 0.4 nM
IC50 [7]: 13.1 nM
IC50 [8]: 0.05 nM
IC50 [9]: 0.35 nM
IC50 [10]: 0.06 nM
